These results are taken from patent US7279548 (CYTOGEN, dated 2007).

No end group written: not given here. *: point of attachment. Biotin = O=C1N[C@H]2[C@H](CS[C@H]2CCCCC(=O)*)N1

T1 sequence (chain, as listed by the source): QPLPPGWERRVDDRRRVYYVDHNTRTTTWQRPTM
T5 sequence (chain, as listed by the source): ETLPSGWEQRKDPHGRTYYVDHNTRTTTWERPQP
T6 sequence (chain, as listed by the source): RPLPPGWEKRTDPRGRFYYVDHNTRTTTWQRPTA

One test has as its target T1, WWP1.2 WW domain expressed as GST fusion protein (human).
T1 construct: Whole WWP1 entry named; not shown: glutathione S-transferase (GST) fusion partner
Put plainly: ELISA cross affinity mapping, GST-WW fusion.
As for Biotin-SGSGPGTPPAPYTVGPGY (not fully specified) [WBP-1-Pro3 (alanine substitution at the third proline position of the PPPPY motif of WBP-1)], the binding result is reported as “no binding”.

As to Biotin-SGSGPGTPYPPPPEFY (Tested as SA-AP complex) [WBP-2B peptide (biotin-SGSGPGTPYPPPPEFY)], the binding result was “no binding”.

As to Biotin-SGSGYVQPPPAPYPGPM [WBP-2A-Pro4 (alanine substitution of the third proline of the PPPPY motif of WBP-2A)], the binding result is recorded as “no binding”.

A further test deals with T2, WWP1.3 WW domain expressed as GST fusion protein (human).
T2 construct: Label WWP1.3 follows the pattern of the printed labels; whole WWP1 entry named; not shown: glutathione S-transferase (GST) fusion partner
T2 sequence (chain, as listed by the source): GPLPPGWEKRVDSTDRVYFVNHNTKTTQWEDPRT
Put plainly: ELISA cross affinity mapping, GST-WW fusion.
Biotin-SGSGPGTPPAPYTVGPGY (not fully specified) [WBP-1-Pro3 (alanine substitution at the third proline position of the PPPPY motif of WBP-1)]: the binding result was “no binding”.

As for Biotin-SGSGPGTPYPPPPEFY (Tested as SA-AP complex) [WBP-2B peptide (biotin-SGSGPGTPYPPPPEFY)], the binding result is “no binding”.

For Biotin-SGSGYVQPPPAPYPGPM [WBP-2A-Pro4 (alanine substitution of the third proline of the PPPPY motif of WBP-2A)], the binding result is recorded as “no binding”.

A further test concerns the target T3, WWP1.4 WW domain expressed as GST fusion protein (human).
T3 construct: Whole WWP1 entry named; not shown: glutathione S-transferase (GST) fusion partner
In words: ELISA cross affinity mapping, GST-WW fusion.
Regarding Biotin-SGSGPGTPPAPYTVGPGY (not fully specified) [WBP-1-Pro3 (alanine substitution at the third proline position of the PPPPY motif of WBP-1)], the binding result is “no binding”.

On to Biotin-SGSGPGTPYPPPPEFY (Tested as SA-AP complex) [WBP-2B peptide (biotin-SGSGPGTPYPPPPEFY)], for which the binding result is “no binding”.

Consider Biotin-SGSGYVQPPPAPYPGPM [WBP-2A-Pro4 (alanine substitution of the third proline of the PPPPY motif of WBP-2A)], for which the binding result is on record as “no binding”.

The target of the next test is T4, WWP2.3 WW domain expressed as GST fusion protein (human).
T4 construct: Whole WWP2 entry named; not shown: glutathione S-transferase (GST) fusion partner
T4 sequence (chain, as listed by the source): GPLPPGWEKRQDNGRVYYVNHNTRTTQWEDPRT
In words: ELISA cross affinity mapping, GST-WW fusion.
For Biotin-SGSGPGTPPAPYTVGPGY (not fully specified) [WBP-1-Pro3 (alanine substitution at the third proline position of the PPPPY motif of WBP-1)], the binding result was “no binding”.

Take Biotin-SGSGPGTPYPPPPEFY (Tested as SA-AP complex) [WBP-2B peptide (biotin-SGSGPGTPYPPPPEFY)]: the binding result was “no binding”.

Turning to Biotin-SGSGYVQPPPAPYPGPM [WBP-2A-Pro4 (alanine substitution of the third proline of the PPPPY motif of WBP-2A)], the binding result was “no binding”.

A further test addresses T5, WWP1.1 WW domain expressed as GST fusion protein (human).
T5 construct: Whole WWP1 entry named; not shown: glutathione S-transferase (GST) fusion partner
In words: ELISA cross affinity mapping, GST-WW fusion.
Biotin-SGSGPGTPPAPYTVGPGY (not fully specified) [WBP-1-Pro3 (alanine substitution at the third proline position of the PPPPY motif of WBP-1)]: the binding result is recorded as “no binding”.

With Biotin-SGSGPGTPYPPPPEFY (Tested as SA-AP complex) [WBP-2B peptide (biotin-SGSGPGTPYPPPPEFY)], the binding result was “no binding”.

Regarding Biotin-SGSGYVQPPPAPYPGPM [WBP-2A-Pro4 (alanine substitution of the third proline of the PPPPY motif of WBP-2A)], the binding result is reported as “no binding”.

The next test has as its target T6, WWP2.2 WW domain expressed as GST fusion protein (human).
T6 construct: Whole WWP2 entry named; not shown: glutathione S-transferase (GST) fusion partner
Put plainly: ELISA cross affinity mapping, GST-WW fusion.
Consider Biotin-SGSGPGTPPAPYTVGPGY (not fully specified) [WBP-1-Pro3 (alanine substitution at the third proline position of the PPPPY motif of WBP-1)], for which the binding result is “no binding”.

Consider Biotin-SGSGPGTPYPPPPEFY (Tested as SA-AP complex) [WBP-2B peptide (biotin-SGSGPGTPYPPPPEFY)], for which the binding result was “no binding”.

Take Biotin-SGSGYVQPPPAPYPGPM [WBP-2A-Pro4 (alanine substitution of the third proline of the PPPPY motif of WBP-2A)]: the binding result is “no binding”.

A further test deals with T7, WWP2.4 WW domain expressed as GST fusion protein (human).
T7 construct: Whole WWP2 entry named; also called WW2.4; not shown: glutathione S-transferase (GST) fusion partner
T7 sequence (chain, as listed by the source): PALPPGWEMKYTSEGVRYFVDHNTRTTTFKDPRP
Put plainly: ELISA cross affinity mapping, GST-WW fusion.
Regarding Biotin-SGSGPGTPPAPYTVGPGY (not fully specified) [WBP-1-Pro3 (alanine substitution at the third proline position of the PPPPY motif of WBP-1)], the binding result was “no binding”.

Biotin-SGSGPGTPYPPPPEFY (Tested as SA-AP complex) [WBP-2B peptide (biotin-SGSGPGTPYPPPPEFY)]: the binding result is listed as “no binding”.

Regarding Biotin-SGSGYVQPPPAPYPGPM [WBP-2A-Pro4 (alanine substitution of the third proline of the PPPPY motif of WBP-2A)], the binding result is recorded as “no binding”.

The target of another test is T8, WWP2.1 WW domain expressed as GST fusion protein (human).
T8 construct: Whole WWP2 entry named; not shown: glutathione S-transferase (GST) fusion partner
T8 sequence (chain, as listed by the source): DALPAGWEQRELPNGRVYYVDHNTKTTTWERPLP
In words: ELISA cross affinity mapping, GST-WW fusion.
Consider Biotin-SGSGPGTPPAPYTVGPGY (not fully specified) [WBP-1-Pro3 (alanine substitution at the third proline position of the PPPPY motif of WBP-1)], for which the binding result is “no binding”.

Regarding Biotin-SGSGPGTPYPPPPEFY (Tested as SA-AP complex) [WBP-2B peptide (biotin-SGSGPGTPYPPPPEFY)], the binding result is given as “no binding”.

Biotin-SGSGYVQPPPAPYPGPM [WBP-2A-Pro4 (alanine substitution of the third proline of the PPPPY motif of WBP-2A)]: the binding result is listed as “no binding”.

The target of the next test is T9, WWP3 WW domain expressed as GST fusion protein (human).
T9 construct: Whole WWP3 entry named; not shown: glutathione S-transferase (GST) fusion partner
T9 sequence (chain, as listed by the source): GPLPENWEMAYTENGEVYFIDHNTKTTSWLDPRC
In words: ELISA cross affinity mapping, GST-WW fusion.
Biotin-SGSGPGTPYPPPPEFY (Tested as SA-AP complex) [WBP-2B peptide (biotin-SGSGPGTPYPPPPEFY)]: the binding result is “no binding”.

For the molecule Biotin-SGSGPGTPPPPYTVGPGY (Tested as streptavidin-enzyme complex) [WBP-1 peptide (biotin-SGSGPGTPPPPYTVGPGY)], the binding result is “no binding”.

For the molecule Biotin-SGSGYVQPPPPPYPGPM (Tested as SA-AP complex) [WBP-2A peptide (biotin-SGSGYVQPPPPPYPGPM)], the binding result was “binds”.

For Biotin-SGSGYVQPPPAPYPGPM [WBP-2A-Pro4 (alanine substitution of the third proline of the PPPPY motif of WBP-2A)], the binding result is recorded as “no binding”.

For a further test, the target named is T1, WWP1.2 WW domain expressed as GST …. In words: cross affinity mapping, GST-WW fusion.
Regarding Biotin-PGTPPLNYDSLRL [ENaCβ-P616L peptide], the binding result was “no binding”.

As for NRLDLPPAETFED (also: biotinylated, Short peptide), the binding result is reported as “no binding”.

As to NRLDLPPAKSYEQ (also: biotinylated, Short peptide), the binding result was “no binding”.

As to Biotin-PGTPPPNHDSLRL [ENaCβ-Y618H peptide], the binding result is given as “no binding”.

A further test addresses T2, WWP1.3 WW domain expressed as GST …. In words: cross affinity mapping, GST-WW fusion.
Biotin-PGTPPLNYDSLRL [ENaCβ-P616L peptide]: the binding result is reported as “no binding”.

With NRLDLPPAETFED (also: biotinylated, Short peptide), the binding result was “no binding”.

Take NRLDLPPAKSYEQ (also: biotinylated, Short peptide): the binding result is given as “no binding”.

As to Biotin-PGTPPPNHDSLRL [ENaCβ-Y618H peptide], the binding result is recorded as “no binding”.

The target of another test is T3, WWP1.4 WW domain expressed as GST …. In words: cross affinity mapping, GST-WW fusion.
As to Biotin-PGTPPLNYDSLRL [ENaCβ-P616L peptide], the binding result is on record as “no binding”.

In the case of NRLDLPPAETFED (also: biotinylated, Short peptide), the binding result is “no binding”.

In the case of NRLDLPPAKSYEQ (also: biotinylated, Short peptide), the binding result is given as “no binding”.

For Biotin-PGTPPPNHDSLRL [ENaCβ-Y618H peptide], the binding result was “no binding”.

Another test has as its target T4, WWP2.3 WW domain expressed as GST …. In words: cross affinity mapping, GST-WW fusion.
For the molecule Biotin-PGTPPLNYDSLRL [ENaCβ-P616L peptide], the binding result is on record as “no binding”.

Regarding NRLDLPPAETFED (also: biotinylated, Short peptide), the binding result is given as “no binding”.

Turning to NRLDLPPAKSYEQ (also: biotinylated, Short peptide), the binding result is “no binding”.

On to Biotin-PGTPPPNHDSLRL [ENaCβ-Y618H peptide], for which the binding result is recorded as “no binding”.

For the next test, the target named is T5, WWP1.1 WW domain expressed as GST …. Put plainly: cross affinity mapping, GST-WW fusion.
For the molecule Biotin-PGTPPLNYDSLRL [ENaCβ-P616L peptide], the binding result was “no binding”.

For NRLDLPPAETFED (also: biotinylated, Short peptide), the binding result was “no binding”.

As for NRLDLPPAKSYEQ (also: biotinylated, Short peptide), the binding result is recorded as “no binding”.

With Biotin-PGTPPPNHDSLRL [ENaCβ-Y618H peptide], the binding result is “no binding”.

The target of a further test is T6, WWP2.2 WW domain expressed as GST …. In words: cross affinity mapping, GST-WW fusion.
For Biotin-PGTPPLNYDSLRL [ENaCβ-P616L peptide], the binding result is recorded as “no binding”.

Consider NRLDLPPAETFED (also: biotinylated, Short peptide), for which the binding result is “no binding”.

Take NRLDLPPAKSYEQ (also: biotinylated, Short peptide): the binding result was “no binding”.

Turning to Biotin-PGTPPPNHDSLRL [ENaCβ-Y618H peptide], the binding result is reported as “no binding”.

The next test deals with T7, WWP2.4 WW domain expressed as GST …. In words: cross affinity mapping, GST-WW fusion.
In the case of Biotin-PGTPPLNYDSLRL [ENaCβ-P616L peptide], the binding result was “no binding”.

As to NRLDLPPAETFED (also: biotinylated, Short peptide), the binding result is “no binding”.

In the case of NRLDLPPAKSYEQ (also: biotinylated, Short peptide), the binding result was “no binding”.

Regarding Biotin-PGTPPPNHDSLRL [ENaCβ-Y618H peptide], the binding result is “no binding”.

A further test has as its target T8, WWP2.1 WW domain expressed as GST …. In words: cross affinity mapping, GST-WW fusion.
For Biotin-PGTPPLNYDSLRL [ENaCβ-P616L peptide], the binding result is listed as “no binding”.

For the molecule NRLDLPPAETFED (also: biotinylated, Short peptide), the binding result is recorded as “no binding”.

For the molecule NRLDLPPAKSYEQ (also: biotinylated, Short peptide), the binding result is given as “no binding”.

For the molecule Biotin-PGTPPPNHDSLRL [ENaCβ-Y618H peptide], the binding result is “no binding”.
